The data set deals with the molecule itself. In words: AUC.

B1: EC1–2 of mouse E-cadherin (domain or fragment)
chain: DWVIPPISCPENEKGEFPKNLVQIKSNRDKETKVFYSITGQGADKPPVGVFIIERETGWLKVTQPLDREAIAKYILYSHAVSSNGEAVEDPMEIVITVTDQNDNRPEFTQEVFEGSVAEGAVPGTSVMKVSATDADDDVNTYNAAIAYTIVSQDPELPHKNMFTVNRDTGVISVLTSGLDRESYPTYTLVVQAADLQGEGLSTTAKAVITVKD
Regarding B1, the dissociation constant (Kd) – broadly, a measure of binding affinity in units of concentration – is around 175 µM.
